Laboratory results taken from US8703143.

Columns and labels:
[1] = molecular target: human plasma fibronectin (human) (UniProt P02751); test: ELISA on coated antigen, background subtracted
[2] = molecular target: large isoform of tenascin-C (UniProt P24821); test: ELISA on coated antigen, background subtracted
large isoform of tenascin-C, sequence (P24821 23-2201): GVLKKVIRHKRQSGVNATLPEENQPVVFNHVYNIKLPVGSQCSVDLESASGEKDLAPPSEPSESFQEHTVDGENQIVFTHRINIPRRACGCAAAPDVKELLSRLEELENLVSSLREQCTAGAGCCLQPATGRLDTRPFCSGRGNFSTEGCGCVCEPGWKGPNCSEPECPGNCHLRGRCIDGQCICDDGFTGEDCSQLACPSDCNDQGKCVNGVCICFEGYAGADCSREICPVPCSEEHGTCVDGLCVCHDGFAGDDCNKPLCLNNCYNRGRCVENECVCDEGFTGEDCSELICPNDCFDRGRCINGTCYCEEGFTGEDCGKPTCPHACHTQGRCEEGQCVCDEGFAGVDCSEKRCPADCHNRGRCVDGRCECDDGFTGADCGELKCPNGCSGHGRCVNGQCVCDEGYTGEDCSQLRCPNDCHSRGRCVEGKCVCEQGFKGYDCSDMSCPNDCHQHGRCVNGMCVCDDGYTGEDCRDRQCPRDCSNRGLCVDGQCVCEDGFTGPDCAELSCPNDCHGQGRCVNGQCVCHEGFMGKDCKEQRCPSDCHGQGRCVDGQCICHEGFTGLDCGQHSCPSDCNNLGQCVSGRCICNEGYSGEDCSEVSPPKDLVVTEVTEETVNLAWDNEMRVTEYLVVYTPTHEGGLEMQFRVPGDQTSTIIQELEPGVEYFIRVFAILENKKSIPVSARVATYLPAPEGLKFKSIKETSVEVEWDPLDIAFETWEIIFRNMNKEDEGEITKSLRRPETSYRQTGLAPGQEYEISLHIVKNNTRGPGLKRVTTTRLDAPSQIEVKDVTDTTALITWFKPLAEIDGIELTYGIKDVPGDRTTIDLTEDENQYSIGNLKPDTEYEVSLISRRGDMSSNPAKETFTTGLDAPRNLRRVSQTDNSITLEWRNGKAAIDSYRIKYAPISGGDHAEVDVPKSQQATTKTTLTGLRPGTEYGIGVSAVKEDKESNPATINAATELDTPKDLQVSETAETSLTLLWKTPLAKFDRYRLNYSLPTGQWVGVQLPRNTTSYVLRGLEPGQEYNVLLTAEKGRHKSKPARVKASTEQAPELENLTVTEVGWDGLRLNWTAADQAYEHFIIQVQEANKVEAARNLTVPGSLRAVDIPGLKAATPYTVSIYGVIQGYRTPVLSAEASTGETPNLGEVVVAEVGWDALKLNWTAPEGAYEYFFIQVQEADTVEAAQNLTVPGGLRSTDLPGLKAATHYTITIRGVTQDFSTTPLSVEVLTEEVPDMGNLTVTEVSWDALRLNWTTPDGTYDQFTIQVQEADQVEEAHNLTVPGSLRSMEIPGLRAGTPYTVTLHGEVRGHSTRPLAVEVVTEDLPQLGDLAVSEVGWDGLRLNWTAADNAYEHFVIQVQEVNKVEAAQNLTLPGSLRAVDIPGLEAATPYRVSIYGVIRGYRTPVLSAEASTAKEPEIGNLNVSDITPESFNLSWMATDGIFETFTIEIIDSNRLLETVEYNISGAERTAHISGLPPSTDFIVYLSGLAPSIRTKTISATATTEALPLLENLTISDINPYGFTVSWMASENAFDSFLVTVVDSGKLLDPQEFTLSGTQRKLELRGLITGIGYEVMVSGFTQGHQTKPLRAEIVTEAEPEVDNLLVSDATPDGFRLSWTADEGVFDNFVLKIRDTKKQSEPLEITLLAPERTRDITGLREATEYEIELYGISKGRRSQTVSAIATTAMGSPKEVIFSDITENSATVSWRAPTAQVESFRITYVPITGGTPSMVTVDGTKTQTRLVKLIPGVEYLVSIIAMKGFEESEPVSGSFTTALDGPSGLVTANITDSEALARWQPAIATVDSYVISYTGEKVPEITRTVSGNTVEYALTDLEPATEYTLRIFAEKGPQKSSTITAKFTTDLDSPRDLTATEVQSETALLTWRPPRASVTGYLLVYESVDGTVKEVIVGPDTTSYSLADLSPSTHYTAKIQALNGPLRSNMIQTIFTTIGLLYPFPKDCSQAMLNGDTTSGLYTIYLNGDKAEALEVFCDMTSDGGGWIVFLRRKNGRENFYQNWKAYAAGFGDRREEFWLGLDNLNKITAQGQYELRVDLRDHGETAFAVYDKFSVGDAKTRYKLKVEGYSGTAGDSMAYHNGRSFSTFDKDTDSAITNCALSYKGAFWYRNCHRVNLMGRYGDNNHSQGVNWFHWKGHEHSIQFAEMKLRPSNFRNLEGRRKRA

OD at 405 nm [1]: 0.07 OD 405 nm
OD at 405 nm [2]: 0.01 OD 405 nm
B1: scFv CGS-1 (scFv, V domains shown)
VH: QVQLVESGGGLVQPGGSLRLSCAVSGFTFSSYAMSWVRQAPGKGLEWVSAISGSGGSTYYADSVKGRFTISRDNSKNTLYLQMNSLRAEDTAVYYCARSLPKWGQGTLVTVSR
VL: SSELTQDPAVSVALGQTVRITCQGDSLRSYYASWYQQKPGQAPVLVTYGKNNRPSGIPDRFSGSSSGNTASLTITGAQAEDEADYYCNSSPVVLNGVVFGGGTKLTVL
